Data on 2 substances can be found in patent publication US20250326860A1.

For assay [1], the target named is human CD20 on cells (human B cells; Raji, SU-DHL-8, SU-DHL-4, A3KAW, NAMALWA) (human) (UniProt P11836). As to the kind of experiment: binding to Raji cells.
For assay [2] the target is unchanged. As to the kind of experiment: flow cytometry, human B cells. A general note: A flow cytometer gives signals particle by particle.
Assay [3] has as its target human CD3 on cells (Jurkat cells, human T cells) (human) (UniProt P07766). As to the kind of experiment: binding to human CD4+ T cells.
Assay [4] shares this target. Kind of assay: binding to human CD8+ T cells.
For assay [5], the target named is cynomolgus monkey CD20 on B cells (cynomolgus monkey) (UniProt M4ZHZ6). Kind of assay: flow cytometry, monkey B cells.
The target of assay [6] is human CD20 on cells (human B cells; Raji, SU-DHL-8, SU-DHL-4, A3KAW, NAMALWA) (human) (UniProt P11836). As to the kind of experiment: binding to human B cells.
The target in assay [7] is human CD3 on cells (Jurkat cells, human T cells) (human) (UniProt P07766). As to the kind of experiment: binding to human CD3+ T cells.
human CD3 on cells (Jurkat cells, human T cells) (human), sequence (P07766 23-207): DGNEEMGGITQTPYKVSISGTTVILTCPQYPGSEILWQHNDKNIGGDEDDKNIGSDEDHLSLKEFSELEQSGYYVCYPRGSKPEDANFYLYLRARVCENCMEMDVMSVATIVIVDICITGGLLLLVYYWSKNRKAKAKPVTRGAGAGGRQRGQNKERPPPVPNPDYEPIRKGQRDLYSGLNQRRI
The next assay addresses human CD3δε (human) (UniProt P07766). Kind of assay: binding to CD3δ/ε protein dimer.

human CD20 on cells (human B cells; Raji, SU-DHL-8, SU-DHL-4, A3KAW, NAMALWA) (human), sequence (P11836 whole entry): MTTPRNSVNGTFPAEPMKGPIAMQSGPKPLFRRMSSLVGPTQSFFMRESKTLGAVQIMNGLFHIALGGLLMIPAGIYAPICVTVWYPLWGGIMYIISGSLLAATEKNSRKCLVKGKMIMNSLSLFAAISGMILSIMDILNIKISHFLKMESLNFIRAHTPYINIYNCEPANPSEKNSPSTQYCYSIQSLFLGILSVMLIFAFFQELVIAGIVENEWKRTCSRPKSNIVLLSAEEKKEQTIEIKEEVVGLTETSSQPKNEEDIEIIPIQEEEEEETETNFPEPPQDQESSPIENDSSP

On to IgG1 isotype control antibody, for which the EC50 in assay [1] is greater than 8000 nM; in assay [3], greater than 2000 nM; in assay [4] it was greater than 2000 nM. Moreover, the figures for the max MFI in assay [2] and in assay [5] were 1650 MFI and 60.4 MFI, respectively.
In the case of Plamotamab analog (bispecific antibody), the concentration giving a half-maximal response (EC50) in assay [1] came to 135 nM; in assay [6], 200 nM; in assay [7], 11.8 nM; in assay [3], 13.1 nM; in assay [4], 10.1 nM; with human CD3δε (human) it was 2.1 nM.

As a reminder, the EC50 is the concentration giving half of the maximal effect.
